Holding throughout (assay): purified protein
Substrate in data set [1]: Nc1ncc(F)c(=O)[nH]1
The class given is biochemical, uncultured Hafnia sp. The conditions noted are these: 50 mM Tris-HCl pH 8.0, 21 °C.

Substrate in data set [2]: Nc1nccc(O)n1
The conditions noted are these: 50 mM Tris-HCl pH 8.0, 21 °C, substrate range 5–700 μM.

Substrate in data set [3]: Nc1ncc(F)c(=O)[nH]1
The class given is biochemical, uncultured Pseudomonas sp. The note with it: 50 mM Tris-HCl pH 8.0, 21 °C, sentence prints 'isocytosine', evident slip for 5-fluoroisocytosine (second URA3 set, after Vcz 5-fluoroisocytosine).

B1: Vcz deaminase (uncultured Hafnia sp.; H2D) (protein)
chain: MDKRTLLFKNAELLVTMDDERREIRGGCLLVEGNRIVAVGGDELCAAPADEEIDLRGHIVIPGLINTHHHMFQSLTRVIPDAQDGELFDWLNNLYPIWAGLTPEMIRISTQTAMAELMLSGCTTSSDHLYVYPNGCRLDDSIDGAREIGMRFHACRGSMSVGRSKGGLPPDELVENEQAILEDSLRLIHSYHDAQRYSMLRIALAPCSPFSVSRELMVKTAQMAREQGVSLHTHLAENDSDVSYSQTHFGMTPAQYAEDLGWVGSDVWHAHCVKLDRAGISLFARTGTGVAHCPCSNMRLASGIAPIRAMLDEGVSVGLGVDGSASNDAGNMIAETRQAMLLQRVGFGPDAMNARQALEIATRGGAKVLNRDDIGYLATGMAADFVAFDLNTLNLAGAKHDPLAALVFCTPGNVAFSVINGQVVIREGVLQTIDLPSVVQQHNRLACLLVNRHRL
notes: full-length ORF, C-terminal 6xHis (pET28a NcoI/XhoI), E. coli BL21(DE3); primers encode N-terminus MDKRTL and C-terminus NRHRL before LE-tag
In the case of B1, in data set [1], the Km was found to be 1270 ± 128 µM and the kcat worked out at 0.1 ± 0.007 s⁻¹. Besides, in data set [2], the Km turned out to be 1860 ± 45 µM and the kcat was determined as 1.64 ± 0.06 s⁻¹.

B2: URA3 deaminase (uncultured Pseudomonas sp.) (protein)
chain: MAKTLLVKNAELLVTMDGQRREIRQGGMFIEDNRIVQVGPAAELPQTADEVLDLKGKVVIPGLVNTHHHMYQSLTRVVPAAQDGELFNWLTNLYPIWARLTPEMIQVSTQTAMAELILSGCTTSSDHLYIYPNGCKLDDSIHAAGEIGMRFHAARGSMSVGRSQGGLPPDSVVEKEADILKESQRLIEDYHDAAHGSMLRVVVAPCSPFSVSRDLMREAAVLARNYGVSLHTHLAENVNDIAYSREKFGMTPAEYAEDLGWVGHDVWHAHCVQLDEHGIELFARTGTGVAHCPCSNMRLASGIAPVRRMRDAGVPVGLGVDGSASNDGASMIGEVRQALLLQRVGFGPDAMTAREALEIATLGGAKVLNRDDIGALAPGMVADFVAFDLNHIAYAGALHDPLAALVFCTPTHVSTSVINGKVVVRDGQLVTVDLPRVLERHNQLARQLVMGE
notes: full-length ORF, C-terminal 6xHis (pET21b NdeI/XhoI), E. coli BL21(DE3); primers encode N-terminus MAKTLL and C-terminus VMGE before LE-tag
B2: in data set [3], the Km came to 1330 ± 305 µM and the kcat turned out to be 0.02 ± 0.003 s⁻¹. Also, in data set [2], the Michaelis-Menten constant (Km) is 1085 ± 120 µM and the kcat was determined as 2.00 ± 0.15 s⁻¹.
